Data on 1 molecule can be found in PMC4534575, “The RNA Helicase DHX34 Activates NMD by Promoting a Transition from the Surveillance to the Decay-Inducing Complex” (Cell Reports, 2014).

The assay addresses T1, T7-DHX34 (wild-type) (human, UniProt Q14147 1-1143).
T1 construct: Human DHX34, wild type; also called T7-tagged DHX34; shRNA-resistant (R) wild-type T7-DHX34; source: HEK293T, transiently transfected, in lysate; also purified on T7 agarose beads
T1 sequence (looked up): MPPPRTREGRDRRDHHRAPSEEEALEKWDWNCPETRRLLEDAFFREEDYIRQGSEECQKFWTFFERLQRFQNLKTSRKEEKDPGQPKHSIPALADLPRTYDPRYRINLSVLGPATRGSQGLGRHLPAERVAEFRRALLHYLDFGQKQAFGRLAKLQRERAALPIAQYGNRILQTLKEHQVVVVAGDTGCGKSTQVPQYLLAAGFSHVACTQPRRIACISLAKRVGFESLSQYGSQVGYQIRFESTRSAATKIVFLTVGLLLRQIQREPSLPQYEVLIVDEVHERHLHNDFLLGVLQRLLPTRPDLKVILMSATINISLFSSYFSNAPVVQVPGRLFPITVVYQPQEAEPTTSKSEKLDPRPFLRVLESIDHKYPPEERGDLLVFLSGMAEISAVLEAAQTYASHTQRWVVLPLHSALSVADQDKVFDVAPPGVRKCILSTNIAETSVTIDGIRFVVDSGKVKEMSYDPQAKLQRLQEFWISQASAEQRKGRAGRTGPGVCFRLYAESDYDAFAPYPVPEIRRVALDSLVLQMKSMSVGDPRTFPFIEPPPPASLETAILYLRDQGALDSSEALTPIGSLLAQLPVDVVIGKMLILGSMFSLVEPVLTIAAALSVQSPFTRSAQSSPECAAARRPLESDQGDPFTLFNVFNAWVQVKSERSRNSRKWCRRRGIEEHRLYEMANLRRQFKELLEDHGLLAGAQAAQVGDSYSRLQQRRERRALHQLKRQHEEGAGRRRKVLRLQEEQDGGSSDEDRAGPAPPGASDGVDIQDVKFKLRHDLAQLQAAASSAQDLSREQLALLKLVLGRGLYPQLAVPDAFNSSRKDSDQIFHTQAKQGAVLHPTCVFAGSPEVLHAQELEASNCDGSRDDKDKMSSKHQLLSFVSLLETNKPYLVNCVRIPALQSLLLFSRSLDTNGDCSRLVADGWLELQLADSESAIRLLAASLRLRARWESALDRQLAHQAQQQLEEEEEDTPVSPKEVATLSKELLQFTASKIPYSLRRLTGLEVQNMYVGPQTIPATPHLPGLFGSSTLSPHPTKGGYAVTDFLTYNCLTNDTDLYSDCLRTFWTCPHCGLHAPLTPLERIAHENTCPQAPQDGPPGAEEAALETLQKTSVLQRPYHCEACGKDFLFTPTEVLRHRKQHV
Nature of the assay: pull-down; purified T7-DHX34 (wild-type or deletion constructs) on T7 agarose beads incubated with recombinant UPF1, UPF2, UPF3b or purified full-length FLAG-UPF1 in buffer D for 2 hr at 4°C. Conditions: both partners purified.

B1: FLAG-UPF1 (wild-type) (natural protein, human, UniProt Q92900-2 1-1118, looked up)
chain: MSVEAYGPSSQTLTFLDTEEAELLGADTQGSEFEFTDFTLPSQTQTPPGGPGGPGGGGAGGPGGAGAGAAAGQLDAQVGPEGILQNGAVDDSVAKTSQLLAELNFEEDEEDTYYTKDLPIHACSYCGIHDPACVVYCNTSKKWFCNGRGNTSGSHIVNHLVRAKCKEVTLHKDGPLGETVLECYNCGCRNVFLLGFIPAKADSVVVLLCRQPCASQSSLKDINWDSSQWQPLIQDRCFLSWLVKIPSEQEQLRARQITAQQINKLEELWKENPSATLEDLEKPGVDEEPQHVLLRYEDAYQYQNIFGPLVKLEADYDKKLKESQTQDNITVRWDLGLNKKRIAYFTLPKTDSDMRLMQGDEICLRYKGDLAPLWKGIGHVIKVPDNYGDEIAIELRSSVGAPVEVTHNFQVDFVWKSTSFDRMQSALKTFAVDETSVSGYIYHKLLGHEVEDVIIKCQLPKRFTAQGLPDLNHSQVYAVKTVLQRPLSLIQGPPGTGKTVTSATIVYHLARQGNGPVLVCAPSNIAVDQLTEKIHQTGLKVVRLCAKSREAIDSPVSFLALHNQIRNMDSMPELQKLQQLKDETGELSSADEKRYRALKRTAERELLMNADVICCTCVGAGDPRLAKMQFRSILIDESTQATEPECMVPVVLGAKQLILVGDHCQLGPVVMCKKAAKAGLSQSLFERLVVLGIRPIRLQVQYRMHPALSAFPSNIFYEGSLQNGVTAADRVKKGFDFQWPQPDKPMFFYVTQGQEEIASSGTSYLNRTEAANVEKITTKLLKAGAKPDQIGIITPYEGQRSYLVQYMQFSGSLHTKLYQEVEIASVDAFQGREKDFIILSCVRANEHQGIGFLNDPRRLNVALTRARYGVIIVGNPKALSKQPLWNHLLNYYKEQKVLVEGPLNNLRESLMQFSKPRKLVNTINPGARFMTTAMYDAREAIIPGSVYDRSSQGRPSSMYFQTHDQIGMISAGPSHVAAMNIPIPFNLVMPPMPPPGYFGQANGPAAGRGTPKGKTGRGGRQKNRFGLPGPSQTNLPNSQASQDVASQPFSQGALTQGYISMSQPSQMSQPGLSQPELSQDSYLGDEFKSQIDVALSQDSTYQGERAYQHGGVTGLSQY
notes: UPF1, human, full length; Plasmid named pcDNA3 x FLAG-UPF1 in the methods; also called purified full-length FLAG-UPF1; source: HEK293T, transiently transfected, in lysate
On to B1, for which the binding result is given as “binds”.
